From the supplement of paper PMC9732359
± gives the uncertainty stated by the source.

Experiment: protein stability index of a GFP-peptide fusion (yeast GPS) (PSI 1-4); higher = more stable; sorted into four equal gates, so the index is relative within each strain
Method in brief: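 Tiled yeast protein peptides of 17 residues were each joined downstream of GFP, on plasmids that also express Cherry. The pooled library was maintained in yeast, and mid-log cultures in leucine-free medium were sorted into four equal gates on the GFP/Cherry ratio. Plasmids from every gate were amplified by PCR and sequenced on Illumina, with barcodes linking reads to strains. The protein stability index of a peptide is its gate-number-weighted read frequency summed over the gates.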

WNKRDFMAFINACAKYG [ISW2]
protein stability index (doa10∆): 1.21 ± 0.087
protein stability index (pdr5∆): 1.24 ± 0.092
protein stability index (san1∆): 1.34 ± 0.26
protein stability index (ubr1∆): 1.15 ± 0.063

IYQVPEKDLEHWLQLAK [POP1]
protein stability index (doa10∆): 3.22 ± 0.12
protein stability index (pdr5∆): 3.13 ± 0.13
protein stability index (san1∆): 3.42 ± 0.091
protein stability index (ubr1∆): 3.1 ± 0.099

LFAGYTDNVIRVWQVMT [ASC1]
protein stability index (doa10∆): 1.61 ± 0.064
protein stability index (pdr5∆): 2.07 ± 0.057
protein stability index (san1∆): 1.86 ± 0.099
protein stability index (ubr1∆): 2.06 ± 0.066

LSHYIRQCFQDNCCDFK [MED1]
protein stability index (doa10∆): 2.78 ± 0.045
protein stability index (pdr5∆): 2.75 ± 0.052
protein stability index (san1∆): 2.94 ± 0.05
protein stability index (ubr1∆): 2.83 ± 0.032

QVRNQVFMLDTKRLGTP [RGR1]
protein stability index (doa10∆): 2.77 ± 0.099
protein stability index (pdr5∆): 2.46 ± 0.11
protein stability index (san1∆): 2.75 ± 0.084
protein stability index (ubr1∆): 2.89 ± 0.17

HDSSNGLFQVLHNFESV [NUT1]
protein stability index (doa10∆): 3.16 ± 0.064
protein stability index (pdr5∆): 3.15 ± 0.064
protein stability index (san1∆): 2.79 ± 0.07
protein stability index (ubr1∆): 3.242 ± 0.031

AFNQVEIRPEMLGHYLG [RPS15]
protein stability index (doa10∆): 2.92 ± 0.12
protein stability index (pdr5∆): 3.09 ± 0.19
protein stability index (san1∆): 3.44 ± 0.12
protein stability index (ubr1∆): 3.19 ± 0.15

RYISTLTLYLFQDYLTQ [IRR1]
protein stability index (doa10∆): 2.14 ± 0.2
protein stability index (pdr5∆): 1.76 ± 0.08
protein stability index (san1∆): 3.14 ± 0.24
protein stability index (ubr1∆): 3.38 ± 0.27

EAASSNKSFIVDQGQIY [ITC1]
protein stability index (doa10∆): 2.92 ± 0.1
protein stability index (pdr5∆): 2.95 ± 0.068
protein stability index (san1∆): 2.89 ± 0.044
protein stability index (ubr1∆): 2.93 ± 0.05

GAAGAWMMNGALQILNS [FAS2]
protein stability index (doa10∆): 1.48 ± 0.046
protein stability index (pdr5∆): 1.65 ± 0.064
protein stability index (san1∆): 2.08 ± 0.12
protein stability index (ubr1∆): 1.68 ± 0.057

VLKFAAHTGATPIAGRF [RPS0A]
protein stability index (doa10∆): 2.23 ± 0.21
protein stability index (pdr5∆): 2.85 ± 0.11
protein stability index (san1∆): 2.81 ± 0.13
protein stability index (ubr1∆): 2.1 ± 0.12

VKALRNVPGVETANVAS [RPL4A]
protein stability index (doa10∆): 2.76 ± 0.069
protein stability index (pdr5∆): 3.15 ± 0.062
protein stability index (san1∆): 2.98 ± 0.051
protein stability index (ubr1∆): 3.01 ± 0.048

LNVYHYFGENSSISWKN [YJL039C/NUP192]
protein stability index (doa10∆): 1.79 ± 0.08
protein stability index (pdr5∆): 2.76 ± 0.082
protein stability index (san1∆): 2.65 ± 0.083
protein stability index (ubr1∆): 3.03 ± 0.1

LDPLTKDPVDFVRQAAM [RPN2]
protein stability index (doa10∆): 3.39 ± 0.12
protein stability index (pdr5∆): 3.53 ± 0.14
protein stability index (san1∆): 3.17 ± 0.2
protein stability index (ubr1∆): 2.85 ± 0.25

EDEEDDNISSFHSAVEN [YCG1]
protein stability index (doa10∆): 3.12 ± 0.069
protein stability index (pdr5∆): 3.2 ± 0.095
protein stability index (san1∆): 3.26 ± 0.052
protein stability index (ubr1∆): 2.6 ± 0.063

TNDRLNREAATKEVESN [DIS3]
protein stability index (doa10∆): 2.79 ± 0.14
protein stability index (pdr5∆): 2.58 ± 0.096
protein stability index (san1∆): 2.62 ± 0.12
protein stability index (ubr1∆): 3.1 ± 0.1

ILRMGAFRTIESKSDDN [RRI1]
protein stability index (doa10∆): 2.88 ± 0.094
protein stability index (pdr5∆): 2.8 ± 0.11
protein stability index (san1∆): 2.92 ± 0.066
protein stability index (ubr1∆): 2.56 ± 0.065

SEHFDVNDNPDIEAGDD [DIS3]
protein stability index (doa10∆): 2.81 ± 0.058
protein stability index (pdr5∆): 2.93 ± 0.058
protein stability index (san1∆): 2.72 ± 0.076
protein stability index (ubr1∆): 3.08 ± 0.045

VQCPTVIKLAKYPDYFP [ARP9]
protein stability index (doa10∆): 2.15 ± 0.079
protein stability index (pdr5∆): 1.81 ± 0.049
protein stability index (san1∆): 2.31 ± 0.092
protein stability index (ubr1∆): 1.82 ± 0.047

LNDEYNYPQLTEDILKE [YCS4]
protein stability index (doa10∆): 2.91 ± 0.15
protein stability index (pdr5∆): 3.12 ± 0.099
protein stability index (san1∆): 3 ± 0.071
protein stability index (ubr1∆): 3.49 ± 0.085

TSPIDIREKVAKQALDL [SNF2]
protein stability index (doa10∆): 3.28 ± 0.14
protein stability index (pdr5∆): 3.17 ± 0.19
protein stability index (san1∆): 2.81 ± 0.13
protein stability index (ubr1∆): 2.69 ± 0.15

CAFLLTKIKDAEEDSLL [YJL039C/NUP192]
protein stability index (doa10∆): 3.22 ± 0.11
protein stability index (pdr5∆): 3.4 ± 0.071
protein stability index (san1∆): 3.08 ± 0.11
protein stability index (ubr1∆): 3.35 ± 0.1

DVIHFEDSSILQSIVNE [PCI8]
protein stability index (doa10∆): 3.21 ± 0.089
protein stability index (pdr5∆): 3.06 ± 0.076
protein stability index (san1∆): 3.04 ± 0.05
protein stability index (ubr1∆): 3.47 ± 0.073

GVDLKLKYSKRRSLKKQ [CSN12]
protein stability index (doa10∆): 2.89 ± 0.074
protein stability index (pdr5∆): 2.75 ± 0.069
protein stability index (san1∆): 3.27 ± 0.15
protein stability index (ubr1∆): 3.05 ± 0.036

CAACHSLDRVAWRTLVG [CYT1]
protein stability index (doa10∆): 1.29 ± 0.052
protein stability index (pdr5∆): 1.32 ± 0.047
protein stability index (san1∆): 1.34 ± 0.1
protein stability index (ubr1∆): 1.26 ± 0.042

RARLKGKEGRIRGNLMG [RPO21]
protein stability index (doa10∆): 3.37 ± 0.097
protein stability index (pdr5∆): 3.19 ± 0.12
protein stability index (san1∆): 3.32 ± 0.088
protein stability index (ubr1∆): 2.96 ± 0.081

STTAALQSISSLTISLY [RPN7]
protein stability index (doa10∆): 1.74 ± 0.041
protein stability index (pdr5∆): 1.82 ± 0.035
protein stability index (san1∆): 1.95 ± 0.049
protein stability index (ubr1∆): 2.12 ± 0.047

WQYIVIDEAHRIKNEQS [ISW2]
protein stability index (doa10∆): 1.48 ± 0.075
protein stability index (pdr5∆): 1.64 ± 0.08
protein stability index (san1∆): 1.23 ± 0.11
protein stability index (ubr1∆): 2.24 ± 0.071

GPGFKFVDLNEKELQNE [SRB4]
protein stability index (doa10∆): 2.64 ± 0.17
protein stability index (ubr1∆): 2.85 ± 0.14

ARVSPRNNVANKQPRNE [YAR002W/NUP60]
protein stability index (doa10∆): 3.29 ± 0.14
protein stability index (pdr5∆): 3.78 ± 0.26
protein stability index (ubr1∆): 3.65 ± 0.25

RRVYNRVLETTLVEFET [BRN1]
protein stability index (doa10∆): 2.21 ± 0.068
protein stability index (pdr5∆): 2.86 ± 0.098
protein stability index (san1∆): 2.69 ± 0.17
protein stability index (ubr1∆): 1.7 ± 0.071

GFNSIWKIPQNDIPQTE [SSN2]
protein stability index (doa10∆): 3.09 ± 0.19
protein stability index (pdr5∆): 3.28 ± 0.28
protein stability index (san1∆): 3.18 ± 0.15
protein stability index (ubr1∆): 3.25 ± 0.076

GLFGNKPALGSLGSSST [YGR119C/NUP57]
protein stability index (doa10∆): 3.34 ± 0.089
protein stability index (pdr5∆): 2.63 ± 0.084
protein stability index (san1∆): 2.77 ± 0.048
protein stability index (ubr1∆): 3.21 ± 0.18

ESSKALADSLDRCVDPE [DIS3]
protein stability index (doa10∆): 2.75 ± 0.084
protein stability index (pdr5∆): 2.27 ± 0.076
protein stability index (san1∆): 2.29 ± 0.21
protein stability index (ubr1∆): 2.38 ± 0.19

GTILSSAGDDGKVRLWK [YGL100W/SEH1]
protein stability index (doa10∆): 3.27 ± 0.12
protein stability index (pdr5∆): 3.51 ± 0.1
protein stability index (san1∆): 3.49 ± 0.053
protein stability index (ubr1∆): 3.38 ± 0.059

VYFGDENKVMLPRCSKE [RRI2]
protein stability index (doa10∆): 3.24 ± 0.091
protein stability index (pdr5∆): 3.37 ± 0.089
protein stability index (san1∆): 3.11 ± 0.074
protein stability index (ubr1∆): 3.13 ± 0.063

TLELESFLEGSKALNSI [RGR1]
protein stability index (doa10∆): 2.54 ± 0.066
protein stability index (pdr5∆): 2.16 ± 0.067
protein stability index (san1∆): 3.13 ± 0.066
protein stability index (ubr1∆): 2.9 ± 0.078

TAETNNKVHETSSKSSS [YDL088C/ASM4]
protein stability index (doa10∆): 2.86 ± 0.039
protein stability index (pdr5∆): 2.96 ± 0.045
protein stability index (san1∆): 2.84 ± 0.039
protein stability index (ubr1∆): 2.89 ± 0.032

NTQPSASGFGFGGSQPN [YGR119C/NUP57]
protein stability index (doa10∆): 3.18 ± 0.18
protein stability index (pdr5∆): 2.72 ± 0.15
protein stability index (san1∆): 2.84 ± 0.12
protein stability index (ubr1∆): 2.77 ± 0.13

GGPWFTDGELDIEFINS [RPC34]
protein stability index (doa10∆): 3.14 ± 0.15
protein stability index (pdr5∆): 3.42 ± 0.12
protein stability index (san1∆): 2.55 ± 0.21
protein stability index (ubr1∆): 3.17 ± 0.081

LLAQLNGTVNNNSALSN [RPT3]
protein stability index (doa10∆): 3.23 ± 0.25
protein stability index (pdr5∆): 2.25 ± 0.14
protein stability index (san1∆): 1.88 ± 0.097
protein stability index (ubr1∆): 2.34 ± 0.075

EKLLQQDREITNWARTT [MED8]
protein stability index (doa10∆): 2.37 ± 0.09
protein stability index (pdr5∆): 1.77 ± 0.087
protein stability index (san1∆): 2.48 ± 0.089
protein stability index (ubr1∆): 2.06 ± 0.11

PFSLTYVRTEETDGKHG [YMR129W/POM152]
protein stability index (doa10∆): 3.13 ± 0.14
protein stability index (pdr5∆): 3.28 ± 0.096
protein stability index (san1∆): 3 ± 0.074
protein stability index (ubr1∆): 3.19 ± 0.069

SDDYDNEGAASSNPQSA [SMC1]
protein stability index (doa10∆): 2.91 ± 0.16
protein stability index (pdr5∆): 3.42 ± 0.13
protein stability index (san1∆): 2.65 ± 0.12
protein stability index (ubr1∆): 3.13 ± 0.051

YKPLIEERMGQIENLNE [SMC4]
protein stability index (doa10∆): 3.2 ± 0.23
protein stability index (pdr5∆): 3.34 ± 0.098
protein stability index (san1∆): 3.46 ± 0.071
protein stability index (ubr1∆): 3.28 ± 0.068

KQERSKQERLKENEESL [PRP28]
protein stability index (doa10∆): 3.21 ± 0.2
protein stability index (pdr5∆): 3.62 ± 0.17
protein stability index (san1∆): 3.22 ± 0.13
protein stability index (ubr1∆): 3.31 ± 0.11

KGLETIDNGAESSENEA [RPC53]
protein stability index (doa10∆): 3.24 ± 0.13
protein stability index (pdr5∆): 3.44 ± 0.13
protein stability index (san1∆): 3.14 ± 0.1
protein stability index (ubr1∆): 3.12 ± 0.094

NGEIKGENIDADNDGPR [SNF2]
protein stability index (doa10∆): 3.07 ± 0.074
protein stability index (pdr5∆): 3.48 ± 0.069
protein stability index (san1∆): 3.49 ± 0.063
protein stability index (ubr1∆): 3.08 ± 0.073

ENEEFITFLQTLYIGNT [ECM29]
protein stability index (doa10∆): 2.06 ± 0.055
protein stability index (pdr5∆): 2.42 ± 0.036
protein stability index (san1∆): 2.38 ± 0.11
protein stability index (ubr1∆): 2.22 ± 0.066

EPYHFISNYNTKYTDDM [SRB8]
protein stability index (doa10∆): 2.96 ± 0.11
protein stability index (pdr5∆): 2.98 ± 0.07
protein stability index (san1∆): 3.01 ± 0.057
protein stability index (ubr1∆): 3.19 ± 0.1

IMSTEAHVNKVTEETTK [SIR4]
protein stability index (doa10∆): 2.77 ± 0.09
protein stability index (pdr5∆): 2.89 ± 0.059
protein stability index (san1∆): 2.97 ± 0.04
protein stability index (ubr1∆): 2.85 ± 0.063

DIRDSSCQGNVIYRNSL [YMR129W/POM152]
protein stability index (doa10∆): 3.5 ± 0.22
protein stability index (pdr5∆): 3.21 ± 0.087
protein stability index (san1∆): 3.38 ± 0.06
protein stability index (ubr1∆): 3.37 ± 0.084

TVQNEILGDLGKEFGTT [FAS2]
protein stability index (doa10∆): 3.03 ± 0.2
protein stability index (pdr5∆): 2.34 ± 0.25
protein stability index (san1∆): 2.57 ± 0.093
protein stability index (ubr1∆): 2.9 ± 0.16
